2 sequences from patent publication US20240218374 can be followed below.

For one data set, the target named is Spike S1 (SARS-CoV-2) (UniProt P0DTC2). Description: filter. To be noted: Y=Tyr-dU, p=Nap-dC; printed CCTTGGGAYApYAYGpGYppGAppGpYpGGApGGAGAAGG [Tyr-dU: 9,12,14,18,27; Nap-dC: 11,16,19,20,23,24,26,28,32].
For data set [1], the target named is Spike RBD-mFc (ACE2 inhibition assay) (SARS-CoV-2) (UniProt P0DTC2). In words: inhibition. The following applies: Y=Tyr-dU, p=Nap-dC; printed CCTTGGGAYApYAYGpGYppGAppGpYpGGApGGAGAAGG [Tyr-dU: 9,12,14,18,27; Nap-dC: 11,16,19,20,23,24,26,28,32].
The target of data set [2] is authentic SARS-CoV-2 virus (VIC01, Clade B) spike (SARS-CoV-2) (UniProt P0DTC2). Description: cell_activity. The following applies: Y=Tyr-dU, p=Nap-dC; printed GGGAYApYAYGpGYppGAppGpYpGGApG [Tyr-dU: 5,8,10,14,23; Nap-dC: 7,12,15,16,19,20,22,24,28].

What is called Kd is the free concentration of one partner at which half of the binding sites on the other are occupied at equilibrium, for simple one-to-one binding. Higher therefore signals a looser complex. As usually defined, the EC50 is the concentration needed to bring the measured effect to its halfway point. A low value points to a more potent agent. “CCTTGGGATACTATGCGTCCGACCGCTCGGACGGAGAAGG [26874-29_4 (SL1111)]” gave an equilibrium dissociation constant (Kd) with Spike S1 (SARS-CoV-2) of 3.2 nM. In data set [1], this sequence came in with an EC50 of 4.2 nM.

Broadly, the IC50 is the midpoint of a concentration-inhibition curve. A lower IC50 goes with higher potency. For “GGGATACTATGCGTCCGACCGCTCGGACG [26874-29_20 (SL1111_20)]”, the IC50 in data set [2] turned out to be 1.1 nM.
